The supplement of paper PMC10567573
± gives the standard deviation.

Experiment: protein stability index of a GFP-peptide fusion (GPS, HEK-293T) (PSI 1-6); higher = more stable
[1] = treatment: DMSO, c terminus: a fixed tail appended
[2] = treatment: MLN4924 1 uM, 8 h, c terminus: a fixed tail appended
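Also: 24-mer peptide tiles fused after GFP, lentivirally expressed, FACS-sorted into six equal bins by GFP/DsRed ratio, decoded by Illumina sequencing, PSI is the read-weighted mean bin number.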

| Sequence | protein stability index [1] | protein stability index [2] | protein stability index (treatment: DMSO, c terminus: native) | protein stability index (treatment: MLN4924 1 uM, 8 h, c terminus: native) |
| --- | --- | --- | --- | --- |
| HYMEENLMDGGDLPSVTDIRRPRL [PLK2] | 4.15 ± 0.16 | 4.22 ± 0.13 | – | – |
| DLSVEERSFVEKHRWPSNMYLKQL [RHOBTB3] | 3.01 ± 0.24 | 2.98 ± 0.18 | – | – |
| KSIDPVLMAPTCVFLASKVEEFGV [CCNC] | 1.92 ± 0.11 | 2.05 ± 0.34 | – | – |
| AVPHPPPSTPIKLEEGDGCAREYL [ADD1] | 4.16 ± 0.35 | 4.42 ± 0.23 | – | – |
| LLYAQGLLAIQFLEFFYGIATATE [SLC19A2] | 3.53 ± 0.64 | 3.2 ± 0.037 | – | – |
| NPPAQPAPNAWQVIKGVLFRIFII [CLPTM1] | 1.9 ± 0.18 | 2.09 ± 0.15 | – | – |
| ALLNDHIYVVGGFDGTAHLSSVEA [KLHL12] | 2.68 ± 0.32 | 3 ± 0.38 | – | – |
| ARPWTRDSASLPRKPSVPWQRQMD [RASAL3] | 2.73 ± 0.22 | 2.94 ± 0.42 | – | – |
| ITTKIFWGGKAETERGLSRKHIIE [KCNAB2] | 2.65 ± 0.29 | 2.89 ± 0.33 | – | – |
| LYKSLKTLSAELVPWLNLKKQDEN [CEP70] | 2.37 ± 0.49 | 2.03 ± 0.37 | – | – |
| ANAEDAQEFSDVERAIETLIKNFH [S100A14] | 3.39 ± 0.43 | 3.94 ± 0.74 | – | – |
| VPGIFCAGADLKERAKMSSSEVGP [AUH] | 3.59 ± 0.34 | 3.64 ± 0.29 | – | – |
| MLSKGLKRKREEEEEKEPLAVDSW [SERTAD1] | 4.84 ± 0.25 | 4.87 ± 0.092 | – | – |
| KDQRNPPSLGRVLPDPREACGSSS [RBMY1A1] | 4.78 ± 0.17 | 5.18 ± 0.095 | – | – |
| QEEEEDNRDSSMKLSFRARAYGFR [CHGA] | 4.58 ± 0.13 | 4.62 ± 0.28 | – | – |
| QVLYEWEQGFSQSFTQEQVADIDG [CTNNB1] | 4.24 ± 0.3 | 4.09 ± 0.46 | – | – |
| RSLQDGTREGFGHSTSLKVPLARS [LCOR] | 4.38 ± 0.27 | 4.37 ± 0.12 | – | – |
| DYEFRVVAVNNIGRGPPSEPVLTQ [PTPRD] | 3.08 ± 0.16 | 3.04 ± 0.47 | – | – |
| EKKKAHYRQSSFPHCSDLMPSGSE [KCNA4] | 4.2 ± 0.2 | 4.31 ± 0.17 | – | – |
| EEAKGLLDKVKDGGYRPAEDKIFP [ZBED1] | 4.84 ± 0.3 | 4.78 ± 0.41 | – | – |
| VIQAVQKSEEGHPFKAYLDVDITL [RTN3] | 2.23 ± 0.59 | 2.18 ± 0.39 | – | – |
| SPEPGTPAAPTPESFTVHFLPLNS [DNAAF3] | 3.55 ± 0.35 | 3.5 ± 0.22 | – | – |

| Sequence | protein stability index [1] | protein stability index [2] | protein stability index (treatment: DMSO, c terminus: native) | protein stability index (treatment: MLN4924 1 uM, 8 h, c terminus: native) |
| --- | --- | --- | --- | --- |
| DCILRDTSEDLRLQCDAVNLAFGR [TEKT4] | 3.4 ± 0.13 | 3.48 ± 0.19 | – | – |
| IFYGSGIFNYMRLGSTKLSDKDKA [OR3A1] | 1.93 ± 0.23 | 2.12 ± 0.19 | – | – |
| GGRKGTAIELQGHNDRVQALSYAQ [WDFY2] | 4.28 ± 0.21 | 4.38 ± 0.19 | – | – |
| PRESTDFSSSSQEAFAASAVGSGE [ZBTB22] | 5.22 ± 0.26 | 5.31 ± 0.27 | – | – |
| IETEDQIDKKPVSEKTDESDTIPY [MIA2] | 5.53 ± 0.3 | 5.3 ± 0.36 | – | – |
| EMVRFLLEAGADQEHKTDEMHTAL [ANKRD17] | 2.88 ± 0.38 | 3.05 ± 0.42 | – | – |
| PSITRKRRYVASVSLHDRIYVIGG [KLHL12] | 2.24 ± 0.26 | 2.13 ± 0.4 | – | – |
| PEKRTQYFDPLRNEYFFDRNRPSF [KCNA4] | 2.74 ± 0.25 | 3.03 ± 0.13 | – | – |
| SWTTVTSMTTPRCYVGATVLRGRL [KLHL12] | 2.23 ± 0.15 | 2.24 ± 0.35 | – | – |
| TLVSRAHQLVMEGYNWCHDRNVVT [PPP2CA] | 2.27 ± 0.23 | 2.21 ± 0.13 | – | – |
| QSHISDMSVILSMDNNRNLDLDSI [KRT71] | 3.87 ± 0.4 | 3.72 ± 0.35 | – | – |
| VTLALFFVLYFLLACWTYGISVPS [CLCN6] | 2.95 ± 0.27 | 2.98 ± 0.19 | – | – |
| LKKPIKGKQAPRKKAQGKTQQNRK [KMT5A] | 4.29 ± 0.2 | 4.45 ± 0.23 | – | – |
| NGGMATTSAEIELPDVEPAAFLAL [BTBD1] | 3.86 ± 0.25 | 4.02 ± 0.22 | – | – |
| PAGAEYCSSARHPAWGHCFYRLYQ [SCNN1D] | 2.08 ± 0.38 | 2.68 ± 0.35 | – | – |
| LSEVKPPPPPPPAQTFLFQGQPVV [TRADD] | 3.89 ± 0.38 | 4.07 ± 0.2 | – | – |
| RSGSPTVPIKPPCIPNGKENFSGG [CAMK2D] | 4.2 ± 0.2 | 4.32 ± 0.21 | – | – |
| LYLIAKRNRKLKCTFSLTHPANRS [SLC22A15] | 2.49 ± 0.41 | 2.41 ± 0.17 | – | – |
| KRKLGLTALVGLRQNLSKSWLDVQ [TPD52L3] | 2.17 ± 0.71 | 2.16 ± 0.42 | – | – |
| HNDRVQALSYAQHTRQLISCGGDG [WDFY2] | 2.77 ± 0.28 | 2.53 ± 0.17 | – | – |
| GQVTPRGLRLRLPRRESLLRGLCR [C6orf223] | 3.24 ± 0.33 | 3.23 ± 0.34 | – | – |
| VYSNTIQSIIAIIRAMGRLKIDFG [GNAI1] | 2.7 ± 0.53 | 2.13 ± 0.29 | – | – |

| Sequence | protein stability index [1] | protein stability index [2] | protein stability index (treatment: DMSO, c terminus: native) | protein stability index (treatment: MLN4924 1 uM, 8 h, c terminus: native) |
| --- | --- | --- | --- | --- |
| HLLSWFSPTIIFDNWIPLLWCANI [DHCR7] | 2.98 ± 0.18 | 3.08 ± 0.21 | – | – |
| VRRQRSADEQLHCAGKAKRSGGHA [ESR2] | 4.51 ± 0.32 | 4.75 ± 0.13 | – | – |
| SNRGAYVKLGPALTPHIVQYQANK [PPEF2] | 2.9 ± 0.38 | 2.99 ± 0.41 | – | – |
| DLRVLVSNASEDTRRLRLAHVGME [SCARA5] | 2.9 ± 0.17 | 3.15 ± 0.11 | – | – |
| HWNSTIKRKVDTGGFLSESKDCKP [MYBL2] | 3.93 ± 0.57 | 4.12 ± 0.32 | – | – |
| GVYGLQRNLLVENIIDIYKQESTR [TRIM55] | 2.61 ± 0.47 | 2.95 ± 0.49 | – | – |
| RLVESTSLRKAIETVYAAYLPKNT [MLH1] | 2.2 ± 0.27 | – | – | – |
| TFVSGGCDKKAMVWDMRSGQCVQA [GNB5] | 2.68 ± 0.2 | 2.89 ± 0.46 | – | – |
| ARKGKGAFCNGQKLQVSQQEDITK [IMPA1] | 4.46 ± 0.18 | 4.67 ± 0.18 | – | – |
| RSSGLVQRRTEASRNAADKERAAG [GOLPH3] | 5.11 ± 0.3 | 5.14 ± 0.33 | – | – |
| FYLALYKQMSFLEKRGCPRTALEY [TCF25] | 2.66 ± 0.4 | 2.01 ± 0.4 | – | – |
| VGSDEEDDSGKDKKKKTKKIKEKY [HSP90AB1] | 5.31 ± 0.47 | 5.32 ± 0.42 | – | – |
| GQPFNSDDRNTACHHGLVADSLQA [DLC1] | 4.49 ± 0.2 | 4.63 ± 0.1 | – | – |
| DENGRPYSPSQYALQYAGDGSVLL [NFE2L1] | 3.57 ± 0.39 | 3.6 ± 0.34 | – | – |
| ILKIRHGWEDVTKINKTEICSQL [STEAP1] | – | – | 2.42 ± 0.57 | 2.2 ± 0.21 |
| FTPPTSLTRAGMSYYNSPGLHVQH [CCDC6] | 2.49 ± 0.52 | 2.84 ± 0.34 | – | – |
| DYVDRGYYSVETVTLLVALKVRYR [PPP2CA] | 2.74 ± 0.46 | 2.47 ± 0.6 | – | – |
| RAILYPCHGMSSQLVRYSADGLLQ [GALNT9] | 2.69 ± 0.22 | 2.76 ± 0.27 | – | – |
| FSVVRRCVKLCTGHEYAAKIINTK [CAMK2B] | 2.1 ± 0.35 | 2.21 ± 0.19 | – | – |
| SLLDELMEVQHFRTIYHMFIAGLC [SOAT2] | 2.59 ± 0.55 | 2.49 ± 0.42 | – | – |
| GVRDSGSPPLHANTSLHVFVLDEN [PCDHGC5] | 3.51 ± 0.21 | 3.51 ± 0.24 | – | – |
